From patent US20250346679A1 (INVOX PHARMA, published 2025)
Substitutions are numbered along the chain they refer to. Each block holds one binder with its values, some of them ahead of it.

Columns and labels:
[1] = biological target: human CD137, cell-surface (human, UniProt Q07011 24-255); assay: cell-based or functional assay
hCD137-mFc-Avi = biological target: T1, hCD137-mFc-Avi (human; mouse, UniProt Q07011 24-186, biotin on the Avi sequence where the biotinylated form was used); assay: SPR, mAb^2 captured by anti-human Fab, antigen in flow, 1:1 Langmuir fit
T1 construct: also called human CD137-mFc-Avi; dimeric human CD137; not shown: mouse IgG2a Fc domain (mIgG2a Fc)
Description: (§1) An anti-human Fab capture antibody was immobilised on all four flow cells of a CM5 series S chip (GE Healthcare #BR-1005-30) to an average surface density of 6000 RU following the manufacturer's recommendations (GE Healthcare, human Fab capture Kit, #28958325). […] Each mAb² was captured to approximately 150 RU by injecting a 3 μg/ml solution of mAb² diluted in HBS-EP+ buffer (GE Healthcare #BR1006-69) for 60 seconds at 30 μl/min. Then different concentrations of human, cyno or mouse CD137 antigen (unbiotinylated human, cyno or mouse CD137-mFc-Avi or human CD137-Avi-His) in HBS-EP+ buffer were flowed over the chip for 3 min at 60 μl/min and then allowed to dissociate for 10 minutes. After each antigen concentration the chip was regenerated by infecting 10 mM glycine pH 2.1 at a flow rate of 30 μl/min for 30 seconds. Buffer HBS-EP+ was injected before the highest concentration of antigen and after the lowest concentration of antigen for reference subtraction, and one of the concentrations at random was repeated twice. The binding kinetics were fit with a 1:1 Langmuir model to generate equilibrium binding constants (KD) for each sample. Data analysis was performed with BiaEvaluation software version 3.2.

cCD137-mFc-Avi = biological target: T2, cCD137-mFc-Avi (cynomolgus; mouse); assay: as above
T2 construct: also called cynomolgus CD137-mFc-Avi; Cyno CD137-mFc-Avi; not shown: mouse IgG2a Fc domain (mIgG2a Fc)
T2 chain: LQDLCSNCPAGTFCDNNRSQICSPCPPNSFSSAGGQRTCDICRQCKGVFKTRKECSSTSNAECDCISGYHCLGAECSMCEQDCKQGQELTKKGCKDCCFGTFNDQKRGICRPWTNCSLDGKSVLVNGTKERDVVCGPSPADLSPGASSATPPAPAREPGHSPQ
Description: as §1

human CD40 = human CD40 (human, UniProt P25942 21-193, limits assumed); assay: SPR, receptor amine-coupled to CM5 (~1000 RU)
Description: (§2) The specificity of the anti-human CD137 Fcabs for human CD137 compared to other related TNFSFR family members was tested. 8 of the Fcabs were tested in mock mAb² (HeID1.3) format and measured by SPR in a Biacore T200 (GE Healthcare) by testing for binding to other human TNFRSF receptors: CD40, OX40 and GITR. Amine coupling (amine coupling kit, GE Healthcare, BR-1000-50) was used to coat human CD40, GITR and OX40 to approximately 1000 RU in Biacore CM5 chips (GE Healthcare, cat no 29149603). […] The chip was regenerated by injection of 10 mM glycine pH 2.5 for 12 s at 30 μl/min. Antibodies specific to the different TNFRSF members were used as positive controls to verify Biacore chip coating. Data was double reference subtracted and analysed using BIAevaluation 3.2 software.

human OX40 = biological target: T3, human OX40 (human, UniProt P43489 29-216); assay: SPR, receptor amine-coupled to CM5 (~1000 RU)
T3 sequence (looked up): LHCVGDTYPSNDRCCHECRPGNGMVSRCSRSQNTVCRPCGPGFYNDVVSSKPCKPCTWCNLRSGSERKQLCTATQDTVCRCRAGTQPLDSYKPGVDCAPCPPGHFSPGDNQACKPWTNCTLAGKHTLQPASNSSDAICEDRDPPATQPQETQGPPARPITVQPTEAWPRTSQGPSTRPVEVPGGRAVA
Description: as §2

human GITR = biological target: T4, human GITR (human, UniProt Q9Y5U5 26-161, limits assumed); assay: SPR, receptor amine-coupled to CM5 (~1000 RU)
T4 sequence (looked up): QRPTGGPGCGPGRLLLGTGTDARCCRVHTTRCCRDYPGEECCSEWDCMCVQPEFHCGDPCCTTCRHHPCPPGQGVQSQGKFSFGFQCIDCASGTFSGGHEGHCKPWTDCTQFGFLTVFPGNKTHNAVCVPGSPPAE
Description: as §2

human CD40, sequence (P25942 21-193 limits assumed): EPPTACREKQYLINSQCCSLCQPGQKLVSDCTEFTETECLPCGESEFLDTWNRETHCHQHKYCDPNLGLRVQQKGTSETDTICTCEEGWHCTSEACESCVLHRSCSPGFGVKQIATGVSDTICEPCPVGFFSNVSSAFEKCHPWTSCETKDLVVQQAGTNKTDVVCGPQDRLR
T1 sequence (Q07011 24-186): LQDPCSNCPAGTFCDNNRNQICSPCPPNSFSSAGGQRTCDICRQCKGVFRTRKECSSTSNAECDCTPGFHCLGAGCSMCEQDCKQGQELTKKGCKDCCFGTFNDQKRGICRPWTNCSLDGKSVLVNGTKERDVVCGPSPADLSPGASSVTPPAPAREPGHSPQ
human CD137, cell-surface, sequence (Q07011 24-255): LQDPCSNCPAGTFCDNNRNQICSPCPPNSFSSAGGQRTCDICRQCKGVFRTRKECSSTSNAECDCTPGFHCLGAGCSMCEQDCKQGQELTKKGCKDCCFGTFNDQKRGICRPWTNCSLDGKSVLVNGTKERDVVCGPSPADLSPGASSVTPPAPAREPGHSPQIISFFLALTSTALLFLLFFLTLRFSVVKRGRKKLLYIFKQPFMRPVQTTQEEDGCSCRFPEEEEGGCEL

B1: FS22-053 in HeID1.3 mock mAb^2 format (bispecific antibody, human IgG1, kappa)
heavy: QVQLQESGPGLVRPSQTLSLTCTVSGSTFSGYGVNWVRQPPGRGLEWIGMIWGDGNTDYNSALKSRVTMLVDTSKNQFSLRLSSVTAADTAVYYCARERDYRLDYWGQGSLVTVSSASTKGPSVFPLAPSSKSTSGGTAALGCLVKDYFPEPVTVSWNSGALTSGVHTFPAVLQSSGLYSLSSVVTVPSSSLGTQTYICNVNHKPSNTKVDKKVEPKSCDKTHTCPPCPAPELLGGPSVFLFPPKPKDTLMISRTPEVTCVVVDVSHEDPEVKFNWYVDGVEVHNAKTKPREEQYNSTYRVVSVLTVLHQDWLNGKEYKCKVSNKALPAPIEKTISKAKGQPREPQVYTLPPSRDELNPPYLFSNQVSLTCLVKGFYPSDIAVEWESNGQPENNYKTTPPVLDSDGSFFLYSKLTVYYNRWQDGNVFSCSVMHEALHNHYTQKSLSLSPG
light: DIQMTQSPASLSASVGETVTITCRASGNIHNYLAWYQQKQGKSPQLLVYNAKTLADGVPSRFSGSGSGTQYSLKINSLQPEDFGSYYCQHFWSTPRTFGGGTKLEIKRTVAAPSVFIFPPSDEQLKSGTASVVCLLNNFYPREAKVQWKVDNALQSGNSQESVTEQDSKDSTYSLSSTLTLSKADYEKHKVYACEVTHQGLSSPVTKSFNRGEC
notes: mock mAb^2: CD137 site in the CH3, Fab against hen egg lysozyme
luciferase signal, NF-κB reporter assay (HEK.FRT.luc.hCD137), fold increase on Protein L crosslinking [1]: ≥ 10 fold
Kd (hCD137-mFc-Avi): 38 nM
Kd (cCD137-mFc-Avi): 34 nM

B2: FS22-172 in HeID1.3 mock mAb^2 format (bispecific antibody, human IgG1, kappa)
heavy: QVQLQESGPGLVRPSQTLSLTCTVSGSTFSGYGVNWVRQPPGRGLEWIGMIWGDGNTDYNSALKSRVTMLVDTSKNQFSLRLSSVTAADTAVYYCARERDYRLDYWGQGSLVTVSSASTKGPSVFPLAPSSKSTSGGTAALGCLVKDYFPEPVTVSWNSGALTSGVHTFPAVLQSSGLYSLSSVVTVPSSSLGTQTYICNVNHKPSNTKVDKKVEPKSCDKTHTCPPCPAPELLGGPSVFLFPPKPKDTLMISRTPEVTCVVVDVSHEDPEVKFNWYVDGVEVHNAKTKPREEQYNSTYRVVSVLTVLHQDWLNGKEYKCKVSNKALPAPIEKTISKAKGQPREPQVYTLPPSRDELRKYYPPYNQVSLTCLVKGFYPSDIAVEWESNGQPENNYKTTPPVLDSDGSFFLYSKLTVGADRWLEGNVFSCSVMHEALHNHYTQKSLSLSPG
light: B1 light
notes: mock mAb^2
luciferase signal, NF-κB reporter assay (HEK.FRT.luc.hCD137), fold increase on Protein L crosslinking [1]: ≥ 10 fold
Kd (hCD137-mFc-Avi): 52 nM
Kd (cCD137-mFc-Avi): 203 nM

More lines, now with the values ahead:

binding result (human CD40): no binding (tested: 1 µM)
binding result (human OX40): no binding (tested: 1 µM)
binding result (human GITR): no binding (tested: 1 µM)
B3: FS22-053-012/HeID1.3 (bispecific antibody, human IgG1, kappa)
heavy: B1 heavy with Y417D, Y418H, N419M, Q422L, D423E
light: B1 light
notes: mock mAb^2; also called FS22-053-012 (mock mAb^2 format)

binding result (human CD40): no binding (tested: 1 µM)
binding result (human OX40): no binding (tested: 1 µM)
binding result (human GITR): no binding (tested: 1 µM)
B4: FS22-053-009/HeID1.3 (bispecific antibody, human IgG1, kappa)
heavy: B1 heavy with Y417E, Y418H, N419T, Q422L
light: B1 light
notes: mock mAb^2; also called FS22-053-009 (mock mAb^2 format)

binding result (human CD40): no binding (tested: 1 µM)
binding result (human OX40): no binding (tested: 1 µM)
binding result (human GITR): no binding (tested: 1 µM)
B5: FS22-053-010/HeID1.3 (bispecific antibody, human IgG1, kappa)
heavy: B1 heavy with Y417D, N419M, Q422L
light: B1 light
notes: mock mAb^2; also called FS22-053-010 (mock mAb^2 format)
